This assay deals with GH receptor (on Nb2 cells). Briefly: cell-based or functional assay.

Nb2 cell proliferation, EC50 data for 1 substance are collected here from patent publication US20180127478A1.

As for “commercial recombinant hGH (Somatropin, United States Pharmacopeia) (from UniProt P01241 27-217) (ligand)”, the Nb2 cell proliferation, EC50 stood at 0.166 nM.
